Laboratory results from patent US20050002923A1 (published 2005).

Legend:
[1] = target: Bca UvrA + Eco UvrB (Bacillus caldotenax / Escherichia coli) (UniProt P0A8F8); test: EMSA; conditions: central (+)-trans-BPDE-N2-guanine adduct; 10 nM UvrA, 100 nM Eco UvrB, 1 mM ATP, 10 mM MgCl2, 37 C; all substrate bound at 250 nM Eco UvrB
[2] = test system: UvrA (Bca) (Bacillus caldotenax); test: EMSA; conditions: central (+)-trans-BPDE-N2-guanine adduct; ABC buffer, 10 mM MgCl2, 1 mM ATP, 37 C, 20 min; fitted as UvrA dimer
[3] = test system: UvrA (Eco) (Escherichia coli); test: EMSA; conditions: central (+)-trans-BPDE-N2-guanine adduct; CITED Zou et al. 1998; cited from earlier work
[4] = test system: Eco UvrA + Eco UvrB + Eco UvrC (Escherichia coli); test: cleavage_in_vitro; conditions: central (+)-trans-BPDE-N2-guanine adduct; 37 C 20 min; abolished by UvrA preincubation at 65 C for 10 min; figure legend says cis adduct, text says trans
[5] = test system: Bca UvrA + Eco UvrB + Eco UvrC (Bacillus caldotenax / Escherichia coli); test: cleavage_in_vitro; conditions: central (+)-trans-BPDE-N2-guanine adduct; 10 nM UvrA, 100 nM UvrB, 5 nM UvrC, 37 C 20 min; 83% and 60% after UvrA preincubation at 65 C for 10 and 30 min; figure legend says cis adduct, text says trans
[6] = test system: UvrA2UvrB (Bca) (Bacillus caldotenax); conditions: UV damage, 200 J/m2; ATPase; 18.3 without DNA
[7] = target: UvrA2 Δβh UvrB (Bca) UvrB deletion Gln97-Asp112 replaced by Gly (Bacillus caldotenax) (UniProt P56981); conditions: UV damage, 200 J/m2; ATPase; 19.0 without DNA
[8] = test system: UvrA (Bca) (Bacillus caldotenax); conditions: UV damage, 200 J/m2; ATPase; 13.2 without DNA; 37 C
[9] = test system: UvrA (Bca) (Bacillus caldotenax); conditions: ATPase stimulated about 10-fold by 5.6 nM dsDNA (control 4.42; 18.4 at 0.224 nM), 37 C
[10] = test system: UvrA (Eco) (Escherichia coli); conditions: ATPase inhibited 23% by 0.224 nM dsDNA (control 71.5), 37 C
E. coli UvrB protein = target: T1, E. coli UvrB protein (Escherichia coli, UniProt A7ZJI8 1-673); test: gel mobility shift with BPDE-DNA substrate, 37° C.
T1 construct: also called Eco UvrB; UvrB (Eco)
T1 sequence: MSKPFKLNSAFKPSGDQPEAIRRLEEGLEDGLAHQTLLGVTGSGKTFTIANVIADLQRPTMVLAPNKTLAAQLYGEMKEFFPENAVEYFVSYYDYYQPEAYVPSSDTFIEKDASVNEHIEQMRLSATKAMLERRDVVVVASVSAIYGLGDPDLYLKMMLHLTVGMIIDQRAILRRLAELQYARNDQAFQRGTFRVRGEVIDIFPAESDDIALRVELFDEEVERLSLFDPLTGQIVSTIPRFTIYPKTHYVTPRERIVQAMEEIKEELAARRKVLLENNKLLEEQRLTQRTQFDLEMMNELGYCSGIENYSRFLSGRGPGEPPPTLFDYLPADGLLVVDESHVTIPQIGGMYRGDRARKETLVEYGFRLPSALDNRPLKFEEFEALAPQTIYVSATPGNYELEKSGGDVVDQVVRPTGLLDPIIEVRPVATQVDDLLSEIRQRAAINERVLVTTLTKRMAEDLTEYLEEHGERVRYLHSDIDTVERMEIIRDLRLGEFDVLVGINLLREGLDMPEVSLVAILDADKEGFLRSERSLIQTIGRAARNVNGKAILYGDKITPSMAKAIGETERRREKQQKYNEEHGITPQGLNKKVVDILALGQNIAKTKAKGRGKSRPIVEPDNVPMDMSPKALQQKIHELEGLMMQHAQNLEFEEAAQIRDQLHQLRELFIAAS

[11] = target: T2, Bacillus caldotenax (Bca) UvrA protein
T2 chain: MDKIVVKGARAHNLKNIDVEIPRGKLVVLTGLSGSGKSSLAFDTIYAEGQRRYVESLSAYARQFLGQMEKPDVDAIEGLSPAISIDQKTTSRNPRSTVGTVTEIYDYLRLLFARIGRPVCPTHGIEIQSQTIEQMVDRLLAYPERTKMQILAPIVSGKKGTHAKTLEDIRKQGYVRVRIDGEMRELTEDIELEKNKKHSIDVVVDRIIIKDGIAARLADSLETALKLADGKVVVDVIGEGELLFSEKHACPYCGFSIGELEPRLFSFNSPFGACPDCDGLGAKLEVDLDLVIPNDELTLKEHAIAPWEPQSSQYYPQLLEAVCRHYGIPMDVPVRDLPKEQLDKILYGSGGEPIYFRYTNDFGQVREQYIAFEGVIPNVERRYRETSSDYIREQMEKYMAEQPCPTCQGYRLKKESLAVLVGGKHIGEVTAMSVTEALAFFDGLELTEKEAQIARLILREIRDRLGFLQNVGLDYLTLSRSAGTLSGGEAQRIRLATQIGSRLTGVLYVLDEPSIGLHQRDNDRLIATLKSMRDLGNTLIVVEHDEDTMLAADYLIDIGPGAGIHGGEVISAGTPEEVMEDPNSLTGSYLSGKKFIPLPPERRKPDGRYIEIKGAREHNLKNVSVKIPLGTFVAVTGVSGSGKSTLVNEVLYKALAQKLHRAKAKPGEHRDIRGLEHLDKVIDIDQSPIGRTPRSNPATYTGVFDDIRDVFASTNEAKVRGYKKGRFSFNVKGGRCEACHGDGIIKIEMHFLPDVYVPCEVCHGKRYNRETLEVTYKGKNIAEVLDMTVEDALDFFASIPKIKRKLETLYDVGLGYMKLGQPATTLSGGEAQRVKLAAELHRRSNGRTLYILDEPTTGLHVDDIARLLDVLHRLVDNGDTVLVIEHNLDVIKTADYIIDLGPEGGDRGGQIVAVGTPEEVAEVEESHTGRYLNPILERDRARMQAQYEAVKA

For (+)-trans-BPDE-N2-dG 50-bp duplex, the binding (% bound as UvrB-DNA) [1] is given as > 50, the Kd [2] is given as 25 nM and the Kd [3] is given as 7.5 nM. It also gave an activity [4] of 67 % incised and an activity [5] of 89 % incised.

For UV-irradiated pUC18 DNA, the activity (mol ATP/mol protein/min) [6] was 22, the activity (mol ATP/mol protein/min) [7] was 29 and the activity (mol ATP/mol protein/min) [8] was 17.

With pGL-2 plasmid DNA (undamaged) the activity (uM ADP/min/uM UvrA) [9] was 45.6 and the activity (uM ADP/min/uM UvrA) [10] was 55.4.

B1: Bacillus caldotenax (Bca) UvrA protein (enzyme)
chain: T2 chain
notes: Full-length recombinant protein made in E. coli as a UvrA-intein-CBD fusion and released by DTT cleavage; also called B. caldotenax UvrA; UvrASD
B1: binds (E. coli UvrB protein).

B2: Bacillus caldotenax (Bca) UvrB protein, wild type (protein)
chain: VEGRFQLVAPYEPQGDQPQAIAKLVDGLRRGVKHQTLLGATGTGKTFTISNVIAQVNKPTLVIAHNKTLAGQLYSELKEFFPHNAVEYFVSYYDYYQPEAYVPQTDTYIEKDAKINDEIDKLRHSATSALFERRDVIIVASVSCIYGLGSPEEYRELVVSLRVGMEIERNALLRRLVDIQYDRNDIDFRRGTFRVRGDVVEIFPASRDEHCIRVEFFGDEIERIREVDALTGEVLGEREHVAIFPASHFVTREEKMRLAIQNIEQELEERLAELRAQGKLLEAQRLEQRTRYDLEMMREMGFCSGIENYSRHLALRPPGSTPYTLLDYFPDDFLIIVDESHVTLPQLRGMYNGDRARKQVLVDHGFRLPSALDNRPLTFEEFEQKINQIIYVSATPGPYELEHSPGVVEQIIRPTGLLDPTIDVRPTKGQIDDLIGEIRERVERNERTLVTTLTKKMAEDLTDYLKEAGIKVAYLHSEIKTLERIEIIRDLRLGKYDVLVGINLLREGLDIPEVSLVAILDADKEGFLRSERSLIQTIGRAARNANGHVIMYADTITKSMEIAIQETKRRRAIQEEYNRKHGIVPRTVKKEIRDVIRATYAAEETEMYEAKPAAAMTKQEREELIRTLEAEMKEAAKALDFERAAQLRDIIFELKAEG
For B2, the ATPase activity (mol of ATP hydrolyzed/mol of protein/min) [11] was 18.3 and the ATPase activity (with UV-irradiated DNA) (mol of ATP hydrolyzed/mol of protein/min) [11] was 22.

B3: β-hairpin deletion mutant of B. caldotenax UvrB (Δβh UvrB) (protein)
chain: VEGRFQLVAPYEPQGDQPQAIAKLVDGLRRGVKHQTLLGATGTGKTFTISNVIAQVNKPTLVIAHNKTLAGQLYSELKEFFPHNAVEYFVSYYDYYGAKINDEIDKLRHSATSALFERRDVIIVASVSCIYGLGSPEEYRELVVSLRVGMEIERNALLRRLVDIQYDRNDIDFRRGTFRVRGDVVEIFPASRDEHCIRVEFFGDEIERIREVDALTGEVLGEREHVAIFPASHFVTREEKMRLAIQNIEQELEERLAELRAQGKLLEAQRLEQRTRYDLEMMREMGFCSGIENYSRHLALRPPGSTPYTLLDYFPDDFLIIVDESHVTLPQLRGMYNGDRARKQVLVDHGFRLPSALDNRPLTFEEFEQKINQIIYVSATPGPYELEHSPGVVEQIIRPTGLLDPTIDVRPTKGQIDDLIGEIRERVERNERTLVTTLTKKMAEDLTDYLKEAGIKVAYLHSEIKTLERIEIIRDLRLGKYDVLVGINLLREGLDIPEVSLVAILDADKEGFLRSERSLIQTIGRAARNANGHVIMYADTITKSMEIAIQETKRRRAIQEEYNRKHGIVPRTVKKEIRDVIRATYAAEETEMYEAKPAAAMTKQEREELIRTLEAEMKEAAKALDFERAAQLRDIIFELKAEG
B3 showed an ATPase activity (mol of ATP hydrolyzed/mol of protein/min) [11] of 19 and an ATPase activity (with UV-irradiated DNA) (mol of ATP hydrolyzed/mol of protein/min) [11] of 29.
